Reference: US12221480

Key:
[1] = biological target: recombinant human soluble γ2 δ3TCR-FC (wild type) (human) (UniProt B7Z8K6); assay: Octet, γ2δ3TCR-hFc captured on anti-human Fc biosensor; row antibody δ3-08 taken as first (saturating), column antibody as second; 5 µg/mL each
[2] = biological target: recombinant human soluble γ2 δ3TCR-FC (wild type) (human) (UniProt B7Z8K6); assay: Octet, γ2δ3TCR-hFc captured on anti-human Fc biosensor; row antibody δ3-31 taken as first (saturating), column antibody as second; 5 µg/mL each; self pair
[3] = biological target: γ2δ3 TCR-hFc mutant S7 (D57N, R65Q in the Vδ3 chain) (human) (UniProt B7Z8K6); assay: Luminex beads; TCR-hFc captured by goat anti-human Fc; antibody titrated
[4] = biological target: γ2δ3 TCR-hFc mutant S4 (E18Q in the Vδ3 chain) (human) (UniProt B7Z8K6); assay: as above
[5] = biological target: γ2δ3 TCR-hFc mutant S8 (K79L, E18Q, H88F in the Vδ3 chain) (human) (UniProt B7Z8K6); assay: as above
[6] = biological target: γ2δ3 TCR-hFc mutant S10 (K3A, K79L, H88T in the Vδ3 chain) (human) (UniProt B7Z8K6); assay: as above
[7] = biological target: γ2δ3 TCR-hFc mutant S5 (D70N, E67Q in the Vδ3 chain) (human) (UniProt B7Z8K6); assay: as above
[8] = biological target: γ2δ3 TCR-hFc mutant S1 (D10N in the Vδ3 chain) (human) (UniProt B7Z8K6); assay: as above
[9] = biological target: γ2δ3 TCR-hFc mutant S11 (K79L, L82K, H88F in the Vδ3 chain) (human) (UniProt B7Z8K6); assay: as above
[10] = biological target: γ2δ3 TCR-hFc mutant S3 (K79L, H88F in the Vδ3 chain) (human) (UniProt B7Z8K6); assay: as above
[11] = biological target: recombinant human soluble γ2 δ3TCR-FC (wild type) (human) (UniProt B7Z8K6); assay: as above
[12] = biological target: γ2δ3 TCR-hFc mutant S2 (D26N, K85L in the Vδ3 chain) (human) (UniProt B7Z8K6); assay: as above
[13] = biological target: recombinant human soluble γ2 δ3TCR-FC (wild type) (human) (UniProt B7Z8K6); assay: Octet, γ2δ3TCR-hFc captured on anti-human Fc biosensor; row antibody δ3-42 taken as first (saturating), column antibody as second; 5 µg/mL each
[14] = biological target: recombinant human soluble γ2 δ3TCR-FC (wild type) (human) (UniProt B7Z8K6); assay: Octet, γ2δ3TCR-hFc captured on anti-human Fc biosensor; row antibody δ3-58 taken as first (saturating), column antibody as second; 5 µg/mL each
[15] = biological target: γ2δ3 TCR-hFc mutant S9 (E67Q, D70N, R75Q, R95Q, E97Q in the Vδ3 chain) (human) (UniProt B7Z8K6); assay: Luminex beads; TCR-hFc captured by goat anti-human Fc; antibody titrated; extrapolated value, no saturation achieved
[16] = biological target: γ2δ3 TCR-hFc mutant S6 (R75Q, R95Q in the Vδ3 chain) (human) (UniProt B7Z8K6); assay: as above
[17] = biological target: recombinant human soluble γ2 δ3TCR-FC (wild type) (human) (UniProt B7Z8K6); assay: Octet, γ2δ3TCR-hFc captured on anti-human Fc biosensor; row antibody δ3-23 taken as first (saturating), column antibody as second; 5 µg/mL each

B1: δ3-31 (antibody, V domains shown)
VH: DVQLQESGPDLVKPSQSLSLTCTVTGYSITSGYGWHWIRQFPGNKLEWMGYISFSGSNKYNPSLKSRISITRDTSKNQFFLQLNSVTTEDTATYYCANLDYWGQGTTLTVSS
VL: DIQMTQRTSSLSASLGDRVTISCSASQDITNYLHWFQQKPDGTVKLLIYYTSTLHSGVPSRFSGSGSGTDYSLTISNLEPEDIATYYCQQYSKLPYTFGGGTKLEITR
[1]
  paired-competition value (Octet signal of the second antibody per paragraph 256): 0.44
[2]
  paired-competition value (Octet signal of the second antibody per paragraph 256): 0.07
[3]
  EC50: 0.05 nM
[4]
  EC50: 0.05 nM
[5]
  EC50: 0.06 nM
[6]
  EC50: 0.08 nM
[7]
  EC50: 4.99 nM
[8]
  EC50: 0.06 nM
[9]
  EC50: 0.06 nM
[10]
  EC50: 0.05 nM
[11]
  EC50: 0.05 nM
[12]
  EC50: 0.05 nM
[13]
  paired-competition value (Octet signal of the second antibody per paragraph 256): 0.37
[14]
  paired-competition value (Octet signal of the second antibody per paragraph 256): 0.38
[15]
  EC50: 37.7 nM
[16]
  EC50: 44.4 nM
[17]
  paired-competition value (Octet signal of the second antibody per paragraph 256): 0.4
